Laboratory results reported in the supplement of paper PMC10065799, “High-throughput profiling of sequence recognition by tyrosine kinases and SH2 domains using bacterial peptide display” (eLife, 2023).

Columns and labels:
Grb2 SH2 = Grb2 SH2 (UniProt P62993); assay: SH2 binding enrichment of the phosphorylated peptide, bacterial display (enrichment ratio); higher = better substrate or ligand; peptides without Tyr show the background
c-Src SH2 = assay: as above
SHP2-C SH2 = assay: as above
FGFR3 = FGFR3 (UniProt P22607); assay: phosphorylation enrichment, bacterial display (enrichment ratio); higher = better substrate or ligand; peptides without Tyr show the background
MERTK = MERTK (UniProt Q12866); assay: as above
Chain of MERTK (Q12866 whole entry, looked up): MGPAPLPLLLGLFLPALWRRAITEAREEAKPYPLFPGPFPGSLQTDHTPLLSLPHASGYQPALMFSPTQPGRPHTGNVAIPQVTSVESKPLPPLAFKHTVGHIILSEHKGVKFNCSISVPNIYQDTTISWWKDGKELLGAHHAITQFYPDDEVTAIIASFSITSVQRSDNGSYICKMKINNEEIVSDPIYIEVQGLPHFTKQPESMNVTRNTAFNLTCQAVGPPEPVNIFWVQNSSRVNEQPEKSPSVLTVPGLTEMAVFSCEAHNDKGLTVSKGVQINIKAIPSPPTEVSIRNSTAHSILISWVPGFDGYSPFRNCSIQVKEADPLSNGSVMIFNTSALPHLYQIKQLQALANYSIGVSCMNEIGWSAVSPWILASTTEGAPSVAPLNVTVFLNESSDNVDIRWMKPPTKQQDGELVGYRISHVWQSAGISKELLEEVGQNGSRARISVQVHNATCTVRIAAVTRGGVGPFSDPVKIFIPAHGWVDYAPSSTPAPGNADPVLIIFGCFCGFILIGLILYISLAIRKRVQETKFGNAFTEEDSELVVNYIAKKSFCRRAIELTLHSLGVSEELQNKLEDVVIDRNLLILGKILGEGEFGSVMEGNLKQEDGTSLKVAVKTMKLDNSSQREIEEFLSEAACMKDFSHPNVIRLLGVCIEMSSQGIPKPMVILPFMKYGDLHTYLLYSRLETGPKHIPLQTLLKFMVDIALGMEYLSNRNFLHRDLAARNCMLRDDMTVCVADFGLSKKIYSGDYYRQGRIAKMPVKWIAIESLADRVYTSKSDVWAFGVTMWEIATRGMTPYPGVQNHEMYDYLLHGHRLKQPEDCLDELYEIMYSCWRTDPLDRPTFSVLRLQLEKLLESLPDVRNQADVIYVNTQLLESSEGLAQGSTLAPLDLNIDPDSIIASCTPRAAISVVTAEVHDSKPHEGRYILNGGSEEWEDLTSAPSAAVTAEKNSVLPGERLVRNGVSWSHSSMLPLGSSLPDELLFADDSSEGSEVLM

Hck = Hck (UniProt P08631); assay: as above
AncSZ = assay: as above
Jak2 = Jak2 (UniProt O60674); assay: as above
Fyn = Fyn (UniProt P06241); assay: as above
FGFR1 = FGFR1 (UniProt P11362); assay: as above
Chain of FGFR1 (P11362 whole entry, looked up): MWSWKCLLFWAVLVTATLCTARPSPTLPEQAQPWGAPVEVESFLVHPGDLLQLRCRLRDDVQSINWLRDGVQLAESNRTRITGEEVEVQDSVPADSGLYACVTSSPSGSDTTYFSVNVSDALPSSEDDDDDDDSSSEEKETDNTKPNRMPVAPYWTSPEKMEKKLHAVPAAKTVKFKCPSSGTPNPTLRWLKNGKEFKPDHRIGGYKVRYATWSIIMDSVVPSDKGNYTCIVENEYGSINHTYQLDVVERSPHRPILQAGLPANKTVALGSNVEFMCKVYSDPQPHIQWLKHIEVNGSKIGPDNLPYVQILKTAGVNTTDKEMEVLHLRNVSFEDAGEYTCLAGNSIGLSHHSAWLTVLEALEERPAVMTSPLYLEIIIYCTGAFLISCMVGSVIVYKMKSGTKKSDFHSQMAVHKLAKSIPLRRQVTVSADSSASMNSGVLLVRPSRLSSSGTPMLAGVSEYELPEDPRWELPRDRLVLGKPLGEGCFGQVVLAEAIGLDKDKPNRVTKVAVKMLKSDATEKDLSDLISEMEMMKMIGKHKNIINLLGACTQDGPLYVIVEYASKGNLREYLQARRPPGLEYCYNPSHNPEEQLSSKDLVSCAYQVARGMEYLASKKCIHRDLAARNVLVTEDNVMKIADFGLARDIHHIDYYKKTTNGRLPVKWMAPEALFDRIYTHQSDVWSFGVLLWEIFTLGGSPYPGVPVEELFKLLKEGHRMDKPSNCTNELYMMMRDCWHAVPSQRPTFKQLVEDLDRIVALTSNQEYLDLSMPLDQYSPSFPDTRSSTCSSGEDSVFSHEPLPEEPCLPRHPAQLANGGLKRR

Fes = Fes (UniProt P07332); assay: as above
Chain of Fes (P07332 whole entry, looked up): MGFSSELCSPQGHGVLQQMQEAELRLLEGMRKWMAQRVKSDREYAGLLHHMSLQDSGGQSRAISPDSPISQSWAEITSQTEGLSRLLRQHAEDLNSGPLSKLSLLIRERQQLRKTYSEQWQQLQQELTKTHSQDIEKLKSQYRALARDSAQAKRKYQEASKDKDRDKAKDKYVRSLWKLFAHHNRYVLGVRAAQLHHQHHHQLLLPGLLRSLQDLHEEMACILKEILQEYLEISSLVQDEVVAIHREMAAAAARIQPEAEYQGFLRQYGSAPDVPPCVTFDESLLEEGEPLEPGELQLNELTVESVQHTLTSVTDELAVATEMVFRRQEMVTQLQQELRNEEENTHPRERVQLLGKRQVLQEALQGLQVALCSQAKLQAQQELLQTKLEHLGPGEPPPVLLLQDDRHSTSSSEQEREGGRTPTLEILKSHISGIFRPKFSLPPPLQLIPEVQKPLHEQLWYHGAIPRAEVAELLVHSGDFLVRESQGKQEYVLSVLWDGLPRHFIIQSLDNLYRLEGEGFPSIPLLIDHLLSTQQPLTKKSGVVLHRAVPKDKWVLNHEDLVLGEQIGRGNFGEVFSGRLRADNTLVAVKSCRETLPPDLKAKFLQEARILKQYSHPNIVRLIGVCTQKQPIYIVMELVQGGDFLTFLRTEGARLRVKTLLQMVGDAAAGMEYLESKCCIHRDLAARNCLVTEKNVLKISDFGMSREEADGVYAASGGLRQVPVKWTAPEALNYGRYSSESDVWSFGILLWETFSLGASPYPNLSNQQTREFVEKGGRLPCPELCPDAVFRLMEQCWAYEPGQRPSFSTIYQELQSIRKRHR

c-Abl (mouse) = assay: as above
EPHB2 = EPHB2 (UniProt P29323); assay: as above
Chain of EPHB2 (P29323 whole entry, looked up): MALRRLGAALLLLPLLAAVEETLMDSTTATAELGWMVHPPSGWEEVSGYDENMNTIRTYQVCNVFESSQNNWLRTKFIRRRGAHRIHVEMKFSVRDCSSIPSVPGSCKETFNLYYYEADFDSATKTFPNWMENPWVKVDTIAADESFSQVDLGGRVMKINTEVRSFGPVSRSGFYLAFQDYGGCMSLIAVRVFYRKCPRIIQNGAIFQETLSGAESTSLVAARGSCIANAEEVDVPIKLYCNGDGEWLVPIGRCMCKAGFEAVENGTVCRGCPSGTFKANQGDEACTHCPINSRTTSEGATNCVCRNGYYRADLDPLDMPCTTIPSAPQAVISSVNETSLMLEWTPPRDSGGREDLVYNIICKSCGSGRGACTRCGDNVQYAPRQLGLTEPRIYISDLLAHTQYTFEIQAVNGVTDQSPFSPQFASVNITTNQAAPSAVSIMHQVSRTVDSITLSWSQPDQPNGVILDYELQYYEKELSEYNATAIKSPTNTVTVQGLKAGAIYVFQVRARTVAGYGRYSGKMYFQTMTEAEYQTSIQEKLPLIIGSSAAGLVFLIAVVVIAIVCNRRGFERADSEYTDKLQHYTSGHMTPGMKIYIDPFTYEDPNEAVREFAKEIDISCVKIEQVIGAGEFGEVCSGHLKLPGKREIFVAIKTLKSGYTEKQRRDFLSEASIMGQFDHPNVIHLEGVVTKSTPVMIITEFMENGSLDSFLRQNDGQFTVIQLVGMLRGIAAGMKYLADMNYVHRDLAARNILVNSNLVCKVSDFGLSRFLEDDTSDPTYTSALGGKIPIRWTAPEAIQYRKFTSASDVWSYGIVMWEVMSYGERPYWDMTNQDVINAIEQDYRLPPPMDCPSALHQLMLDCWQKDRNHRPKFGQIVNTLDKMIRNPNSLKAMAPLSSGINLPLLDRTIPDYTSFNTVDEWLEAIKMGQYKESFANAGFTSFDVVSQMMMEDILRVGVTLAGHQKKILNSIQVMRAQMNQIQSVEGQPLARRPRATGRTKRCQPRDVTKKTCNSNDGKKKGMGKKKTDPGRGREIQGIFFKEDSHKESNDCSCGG

c-Src = assay: as above
EPHB1 = EPHB1 (UniProt P54762); assay: as above
Chain of EPHB1 (P54762 whole entry, looked up): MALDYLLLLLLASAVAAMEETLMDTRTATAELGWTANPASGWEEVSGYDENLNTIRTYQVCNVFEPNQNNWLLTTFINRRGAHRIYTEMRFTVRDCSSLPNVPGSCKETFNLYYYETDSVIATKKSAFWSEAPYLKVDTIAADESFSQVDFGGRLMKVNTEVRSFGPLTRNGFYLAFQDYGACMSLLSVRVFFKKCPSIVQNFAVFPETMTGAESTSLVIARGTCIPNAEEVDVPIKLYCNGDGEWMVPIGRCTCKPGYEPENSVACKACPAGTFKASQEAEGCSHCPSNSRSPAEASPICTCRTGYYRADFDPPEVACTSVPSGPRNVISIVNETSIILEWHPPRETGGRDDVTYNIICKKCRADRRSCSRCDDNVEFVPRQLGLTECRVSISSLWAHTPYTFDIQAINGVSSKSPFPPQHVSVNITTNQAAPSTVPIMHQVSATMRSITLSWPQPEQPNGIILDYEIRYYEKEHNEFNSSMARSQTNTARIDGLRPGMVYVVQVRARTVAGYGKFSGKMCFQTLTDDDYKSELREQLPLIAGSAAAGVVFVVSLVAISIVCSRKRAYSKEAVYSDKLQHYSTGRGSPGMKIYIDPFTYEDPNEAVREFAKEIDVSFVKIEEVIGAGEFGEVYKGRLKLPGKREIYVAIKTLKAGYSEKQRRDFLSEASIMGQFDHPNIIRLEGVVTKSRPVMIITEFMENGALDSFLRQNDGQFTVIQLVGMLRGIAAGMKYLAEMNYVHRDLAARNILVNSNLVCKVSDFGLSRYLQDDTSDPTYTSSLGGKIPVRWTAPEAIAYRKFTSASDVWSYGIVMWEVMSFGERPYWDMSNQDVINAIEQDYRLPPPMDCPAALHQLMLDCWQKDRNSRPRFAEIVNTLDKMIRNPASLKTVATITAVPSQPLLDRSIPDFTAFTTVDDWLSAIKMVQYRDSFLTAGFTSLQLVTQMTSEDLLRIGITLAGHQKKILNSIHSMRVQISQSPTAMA

Fer (mouse) = assay: as above
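For SH2 binding enrichment of the phosphorylated peptide, bacterial display in this document: peptide library displayed on the E. coli surface as eCPX fusions, selected cells deep-sequenced, score is each peptide's frequency after selection divided by its frequency in the input.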
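For phosphorylation enrichment, bacterial display in this document: 11-residue human phosphosite peptides and single-mutation variants displayed on the E. coli surface, counted by deep sequencing, each peptide's frequency after selection divided by its frequency in the unselected input library; frequency after pTyr selection over input frequency; kinase dosed for 20-30% of maximal phosphorylation in three min.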

| SH2 binding enrichment (Grb2 SH2) | SH2 binding enrichment (c-Src SH2) | SH2 binding enrichment (SHP2-C SH2) | Sequence | phosphorylation enrichment (FGFR3) | phosphorylation enrichment (MERTK) | phosphorylation enrichment (Hck) | phosphorylation enrichment (AncSZ) | phosphorylation enrichment (Jak2) | phosphorylation enrichment (Fyn) | phosphorylation enrichment (FGFR1) | phosphorylation enrichment (Fes) | phosphorylation enrichment (c-Abl (mouse)) | phosphorylation enrichment (EPHB2) | phosphorylation enrichment (c-Src) | phosphorylation enrichment (EPHB1) | phosphorylation enrichment (Fer (mouse)) |
| --- | --- | --- | --- | --- | --- | --- | --- | --- | --- | --- | --- | --- | --- | --- | --- | --- |
| 0.821 | 0.519 | 0.478 | RRFLFYFSFLL [PTEN_Y177_V175L_YF] | 0.508 | 0.53 | 0.541 | 0.691 | 0.727 | 0.567 | 0.472 | 0.794 | 0.613 | 0.608 | 0.683 | 0.493 | 0.398 |
| 0.657 | 0.414 | 0.818 | RRVLVYVGRGA [QDPR_Y16_G17V] | 0.648 | 0.762 | 0.506 | 1.1 | 1.03 | 0.716 | 0.797 | 0.799 | 0.798 | 0.858 | 0.788 | 0.63 | 0.85 |

The remaining lines, values behind:

| Sequence | SH2 binding enrichment (Grb2 SH2) | SH2 binding enrichment (c-Src SH2) | SH2 binding enrichment (SHP2-C SH2) | phosphorylation enrichment (FGFR3) | phosphorylation enrichment (MERTK) | phosphorylation enrichment (Hck) | phosphorylation enrichment (AncSZ) | phosphorylation enrichment (Jak2) | phosphorylation enrichment (Fyn) | phosphorylation enrichment (FGFR1) | phosphorylation enrichment (Fes) | phosphorylation enrichment (c-Abl (mouse)) | phosphorylation enrichment (EPHB2) | phosphorylation enrichment (c-Src) | phosphorylation enrichment (EPHB1) | phosphorylation enrichment (Fer (mouse)) |
| --- | --- | --- | --- | --- | --- | --- | --- | --- | --- | --- | --- | --- | --- | --- | --- | --- |
| RRAKGYPIDLF [ITGB2_Y125_YF] | 0.573 | 0.427 | 0.687 | 0.677 | 0.878 | 0.57 | 4.21 | 1.64 | 0.563 | 1.06 | 0.993 | 0.771 | 0.605 | 1.25 | 0.566 | 1.08 |
| RRNEIYEIKVD [LGR5_Y387_H383R] | 0.986 | 0.426 | 0.692 | 0.771 | 0.468 | 5.36 | 1.09 | 0.669 | 5.59 | 0.923 | 1.36 | 0.574 | 1.4 | 4.83 | 0.751 | 0.757 |
| RSAGKDDVFLI [MECP2_Y120_Y120D_YF] | 1.01 | 0.481 | 0.861 | 0.894 | 0.494 | 0.683 | 0.842 | 0.706 | 0.557 | 0.629 | 1.16 | 0.872 | 0.75 | 0.601 | 0.646 | 0.511 |
| RSFLSYYTSHV [NEFL_Y442_P440L] | 1.12 | 1.66 | 1.63 | 0.834 | 1.44 | 0.421 | 0.996 | 1.71 | 0.692 | 0.575 | 0.876 | 0.606 | 0.761 | 0.561 | 0.998 | 0.491 |
| RTESQYQENRG [LRCH3_Y354_R350T] | 1.19 | 0.554 | 0.862 | 0.591 | 0.688 | 0.653 | 0.792 | 1.26 | 0.578 | 0.499 | 1 | 0.799 | 0.414 | 0.557 | 0.675 | 0.539 |
